The results in this text go back to paper PMC5477644.

One assay has as its target 6His-Ska1/Ska2/Ska3 (WT) (UniProt Q96BD8). Nature of the assay: SEC + other: velocity sedimentation on a sucrose gradient.
A further assay concerns the target tubulin (microtubules). In words: TIRF, tracking of depolymerizing microtubule ends. Particulars: reference: SKA wild type complex; sites S34.

6His-Ska1/Ska2/Ska3 (WT) (from UniProt Q96BD8 1-255; Q8WVK7 1-121; Q8IX90 1-412) (complex), sequence (Q96BD8 whole entry): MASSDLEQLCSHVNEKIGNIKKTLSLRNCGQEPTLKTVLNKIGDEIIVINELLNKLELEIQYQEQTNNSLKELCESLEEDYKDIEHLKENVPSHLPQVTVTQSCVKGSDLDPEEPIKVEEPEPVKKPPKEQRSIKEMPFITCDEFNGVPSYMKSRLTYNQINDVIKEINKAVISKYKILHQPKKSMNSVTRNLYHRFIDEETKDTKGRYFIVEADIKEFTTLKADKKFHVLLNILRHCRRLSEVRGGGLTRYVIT
6His-Ska1/Ska2/Ska3 (WT) (from UniProt Q96BD8 1-255; Q8WVK7 1-121; Q8IX90 1-412) (complex), sequence (Q8WVK7 whole entry): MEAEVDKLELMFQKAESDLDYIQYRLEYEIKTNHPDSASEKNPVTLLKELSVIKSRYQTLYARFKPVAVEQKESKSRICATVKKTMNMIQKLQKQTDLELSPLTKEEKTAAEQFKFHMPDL
6His-Ska1/Ska2/Ska3 (WT) (from UniProt Q96BD8 1-255; Q8WVK7 1-121; Q8IX90 1-412) (complex), sequence (Q8IX90 whole entry): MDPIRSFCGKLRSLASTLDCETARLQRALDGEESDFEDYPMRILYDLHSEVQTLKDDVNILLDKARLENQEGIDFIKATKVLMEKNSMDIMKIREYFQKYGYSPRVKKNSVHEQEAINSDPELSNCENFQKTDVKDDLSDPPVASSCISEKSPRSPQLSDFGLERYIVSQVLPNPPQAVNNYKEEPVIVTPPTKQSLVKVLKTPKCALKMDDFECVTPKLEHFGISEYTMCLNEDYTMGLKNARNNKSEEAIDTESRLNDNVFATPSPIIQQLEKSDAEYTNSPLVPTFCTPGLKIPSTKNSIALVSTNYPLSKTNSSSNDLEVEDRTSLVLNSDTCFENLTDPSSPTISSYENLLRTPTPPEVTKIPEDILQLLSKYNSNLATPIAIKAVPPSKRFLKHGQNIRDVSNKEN
Ska3 (C13orf3, RAMA1), sequence (Q8IX90 whole entry, looked up, stated change not applied): as the sequence (Q8IX90 whole entry) above

Broadly, the stoichiometry N is a count of units in the complex or per binding partner. Regarding “6His-Ska1/Ska2/Ska3 (WT) (from UniProt Q96BD8 1-255; Q8WVK7 1-121; Q8IX90 1-412) (complex)”, in the assay with 6His-Ska1/Ska2/Ska3 (WT), the stoichiometry N was 2.
Take “Ska3 (C13orf3, RAMA1) (from UniProt Q8IX90) SKA S34A complex”: the “other: median post/pre-conversion intensity ratio” value with tubulin (microtubules) is “same; reference 1.01”.
